The values below come from publication PMC11161652, “ASXLs binding to the PHD2/3 fingers of MLL4 provides a mechanism for the recruitment of BAP1 to active enhancers” (Nature Communications, 2024).

One data set relates to PR-DUB complex. Nature of the data set: Tandem affinity purification: association with PR-DUB complex. As to conditions: K562 soluble nuclear extracts, 3Flag-2Strep tag, western blot and mass spectrometry. The data set is classed as cell-based, human. The procedure: (§1) Isogenic K562 cell lines expressing 3xFlag2xStrep-tagged ASXL2 WT and ΔMBH (aa 650-670), were generated by integration at the AAVS1 safe harbor locus after DSB induction and recombination targeted by co-transfection with a ZFN expression plasmid, as previously described. 2 × 10^5 cells were transfected with 400 ng of ZFN expression vector and 4 μg of donor constructs. Selection and cloning were performed in RPMI medium supplemented with 0.5 μg/mL puromycin starting 2–3 days post transfection. Clones were obtained by limiting dilution and expanded before harvest for western blot analysis.
(§2) For purification of native complexes, after large-scale expansion of K562 clones, affinity purifications of tagged ASXL2 WT and ΔMBH (aa 650-670) were performed on nuclear extracts as previously described. Briefly, nuclear extracts were prepared following standard procedures and pre-cleared with CL6B Sepharose beads. […] Typically, 5–15 μl of the elutions (1–3% of total) was loaded on NuPAGE 4–12% Bis-Tris gels (Invitrogen) and analyzed by silver staining and western blots. […] Purified fractions were prepared and analyzed at the Proteomics Platform of the Quebec Genomic Center using an Orbitrap Fusion mass spectrometer (Thermo Fisher Scientific) as previously described. […]
(In general: Immunoblotting shows a protein as a band on a membrane.)

In the next data set the test system is MLL3/4 complexes. In words: Tandem affinity purification: interaction with MLL3/4 complexes. Type of data set: cell-based, human. To be noted: K562 soluble nuclear extracts, 3Flag-2Strep tag, western blot and mass spectrometry. The procedure: as §1, §2
In another data set the test system is H2AK119. In words: H2AK119 deubiquitination assay. Type of data set: biochemical, human.
For data set [1], the system named is H3K4 (recombinant histone octamers or mono-nucleosomes). Nature of the data set: H3K4 histone methyltransferase assay. The data set is classed as biochemical, human. To be noted: purified complexes, 50 μM S-adenosyl-L-methionine, 8 h at 30 °C, n = 2. The procedure:
Equivalent amounts of purified ASXL2 WT and ΔMBH complexes were incubated with 0.5 μg of reconstituted recombinant mono-nucleosomes or histone octamers as substrates. All HMT assays were performed in 50 mM Tris-HCl pH 8, 100 mM KCl, 5 mM MgCl2, 0.1 mM DTT, 10% glycerol in the presence of 50 μM S-adenosyl-L-methionine (Sigma, A7007). After an 8 h incubation at 30 °C, 4X Laemmli buffer was added, the samples run on 15% SDS-PAGE and transferred on nitrocellulose membrane. Immunoblotting was performed with an anti-H3K4me1 (Ab8895, rabbit polyclonal) diluted 1:1000 followed by HRP conjugated secondary goat anti-rabbit antibody (Sigma) used at a 1:10,000 dilution. The immunoblots were visualized using a Western Lightning plus-ECL reagent (Perkin-Elmer). Anti-H4 (Abcam, Ab7311, rabbit polyclonal) was used at a 1:2,500 dilution.

In another data set the test system is GST-MLL4PHD2/3. Nature of the data set: GST pull-down, WT MLL4PHD2/3. The data set is classed as binding, human. To be noted: WT GST-MLL4PHD2/3; HEK293FT lysate, 3 h at 4 °C, western blot; n = 3. The procedure:
(§3) Pull-down assays were performed by mixing resin-bound GST-MLL3PHD2/3 and GST-MLL4PHD2/3 (wild type and mutants) with lysates of HEK293FT expressing Myc-ASXL1, Myc-ASXL2 or Myc-ASXL2ΔMBH. Pellets of HEK293FT cells transfected with the appropriate pDEST expression construct (15 μg/dish using polyethylenimine (PEI)) were lysed with 10 times their volume of lysis buffer (50 mM Tris pH 7.3, 100 mM NaCl, 1 mM DTT, 1 mM EDTA, 1 mM PMSF, 0.1% Tween20, 1/100 anti-protease (Sigma)) and sonicated with a probe sonicator (Branson digital sonifier 450) calibrated at 40% amplitude for 3–4 rounds during 40–60 s. Lysates were then centrifuged in a Sorvall Lynx 6000 (rotor: F21-8x50Y) at 15,000 RPM during 20 min. Approximatively 9 μg of purified GST-fusion proteins bound to GSH resin (Sigma, G4510) were used for each condition. Final volume of GSH resin was adjusted to 30 μl per condition with empty GSH beads and incubated with 1.5 mL of HEK293FT lysate expressing Myc-ASXL1, Myc-ASXL2 or Myc-ASXL2ΔMBH for 3 h at 4 °C on a rotative system. A fraction of the reaction mixture (80 μL) was collected as the input. After the incubation, beads were washed 5 times and mixed with 100 μL of Laemmli buffer. Samples were loaded on 8% or 15% SDS-acrylamide gels and processed for western blotting.

Data set [2] relates to active enhancer upstream of GRHL2 gene in K562 ASXL2 KD cells. Nature of the data set: ChIP-qPCR at active enhancer upstream of GRHL2. The data set is classed as cell-based, human. To be noted: K562 ASXL2 KD cells complemented from AAVS1; IP/input corrected for total H3; three biological replicates. The text has this: K562 cell lines with knocked down expression of endogenous ASXL2 were obtained after double infection of lentivirus expressing Cas9 and 4 different gRNAs targeting the end of exon 1 (pLENTI_CRISPR_V2, co-selection by FACS with GFP). Clone 1 L was selected (obtained with gRNA 1: 5′-[…]-3′ cutting at the very end of exon 1) for transfection of WT and DMBH ASXL2 vectors for integration and stable expression from the AAVS1 safe harbor, as described for the tagged K562 cell lines used for purification. Expression levels of endogenous ASXL2, WT and ΔMBH ASXL2 were monitored by running SDS-PAGE and transferring onto nitrocellulose membrane. Anti-FLAG M2 conjugated to horseradish peroxidase (A8592, Sigma) was used at 1:10,000 dilution and anti-ASXL2, at 1:2,000 (Cell Signaling (E623X), CS71257, lot:1). Immunoblots were visualized using a Western Lightning plus ECL reagent (Perkin-Elmer).
Crosslinked chromatin from K562 cells and immunoprecipitations were prepared as previously described. For chromatin immunoprecipitation, 100 μg of chromatin was incubated with 2 μg anti-H2AK119ub (Cell Signaling, 8240S, D27C4 lot:9) or 3 μg anti-H3 (Abcam, ab1791, lot GR3421644-1), 2 μg anti-H3Kme1 (Abcam, ab8895, lot GR442591-1), 2 μg anti-H3K27ac (Thermo Fisher, MA5-23516, lot: ZA4181671) or 0.3 μg anti-H3K27me3 (Cell Signaling, C36B11, 9733 S lot:19) antibodies overnight at 4 °C. 25 μl of Protein A Dynabeads were then added to each sample, and the mixtures were incubated at 4 °C for 4 h. The beads were washed extensively and eluted with 1% SDS and 0.1 M NaHCO3. Cross-linked samples were reversed by heating overnight at 65 °C in the presence of 0.2 M NaCl. Samples were then treated with RNase A and proteinase K for 2 h, and DNA was recovered using MinElute PCR purification Kit (Qiagen, 28004) according to the manufacturer’s instructions. Quantitative real-time PCR corrected for primer efficiencies in the linear range was performed using SYBR Green I (Roche, 04877352001) on a LightCycler 480 (Roche). Primers for 5′ end of active enhancer: Fwd: 5′-[…]; Rev: 5′-[…]; For 3′ end: Fwd: 5′-[…], Rev: 5′-[…].
Background: Real-time PCR tracks product formation cycle by cycle.

The subject of a further data set is GST-MLL3PHD2/3. In words: GST pull-down, WT MLL3PHD2/3. The data set is classed as binding, human. As to conditions: WT GST-MLL3PHD2/3; HEK293FT lysate, 3 h at 4 °C, western blot; n = 3. The protocol: as §3

Experimental for H2AK119: The deubiquitination reactions were done by adding equivalent amounts of ASXL2 WT or ΔMBH (4 μl E1-F) native complexes purified from K562 cells to 0.5 μg of chromatin enriched extracts from K562 cells, incubated at 37 °C in 50 mM Tris-HCl pH 7.3, 50 mM NaCl, 1 mM MgCl2, 1 mM DTT, 1 mM PMSF, 10 μg/ml Leupeptin, 10 μg/ml Pepstatin A, 25 μg/ml Aprotinin. After 3 or 6 h incubation, 4X Laemmli buffer was added, the samples run on 15% SDS-PAGE and transferred on nitrocellulose membrane. Immunoblotting was performed with an anti-H2AK119ub (Cell Signaling, D27C4, rabbit polyclonal) diluted 1:2000 followed by HRP conjugated secondary goat anti-rabbit antibody (Sigma) used at a 1:10,000 dilution. The immunoblots were visualized using a Western Lightning plus-ECL reagent (Perkin-Elmer). Anti-H3 (Abcam, Ab1791, rabbit polyclonal) was used at a 1:50,000 dilution.
Cell pellets were harvested 2 days post-transfection and lysed with 10 times their own volume with EB300 lysis buffer (50 mM Tris pH 7.3, 300 mM NaCl, 0.5% Triton X100 (V/V), 5 mM EDTA, 50 mM NaF, 1 mM Na3VO4 (activated), 10 mM Beta-glycerol-phosphate, 1 mM DTT, 1 mM PMSF, 1/100 anti-protease (Sigma)). Lysates were incubated on ice for 30 min before centrifugation in a Sorvall Lynx 6000 (rotor: F21-8x50Y) at 15,000 RPM during 20 min. Supernatants were collected and diluted with EB0 (50 mM Tris pH 7.3, 0.5% Triton X100 (V/V), 5 mM EDTA, 50 mM NaF, 1 mM Na3VO4, 10 mM Beta-glycerol-phosphate, 1 mM DTT, 1 mM PMSF, 1/100 anti-protease) to adjust the final concentration of NaCl to 150 mM. Agarose anti-FlagM2 beads (40 μL) (Sigma, A2220) were added to each lysate and incubated overnight at 4 °C on a rotative system. The next day, beads were washed 5 times with the wash buffer (50 mM Tris pH 7.3, 150 mM NaCl, 0.5% Triton X100 (V/V), 1/500 anti-protease, 1 mM DTT, 1 mM PMSF). […] Following three elutions of 2 h each, the pooled fractions were incubated with 40 μL of anti-HA beads (Sigma A2095) overnight at 4 °C on a rotative system. […]

B1: ASXL2ΔMBH: ΔMBH ASXL2 mutant lacking the MLL3/4-binding domain (aa 650-670) (protein)
chain: MREKGRRKKGRTWAEAAKTVLEKYPNTPMSHKEILQVIQREGLKEIRSGTSPLACLNAMLHTNSRGEEGIFYKVPGRMGVYTLKKDVPDGVKELSEGSEESSDGQSDSQSSENSSSSSDGGSNKEGKKSRWKRKVSSSSPQSGCPSPTIPAGKVISPSQKHSKKALKQALKQQQQKKQQQQCRPSISISSNQHLSLKTVKAASDSVPAKPATWEGKQSDGQTGSPQNSNSSFSSSVKVENTLLGLGKKSFQRSERLHTRQMKRTKCADIDVETPDSILVNTNLRALINKHTFSVLPGDCQQRLLLLLPEVDRQVGPDGLMKLNGSALNNEFFTSAAQGWKERLSEGEFTPEMQVRIRQEIEKEKKVEPWKEQFFESYYGQSSGLSLEDSKKLTASPSDPKVKKTPAEQPKSMPVSEASLIRIVPVVSQSECKEEALQMSSPGRKEECESQGEVQPNFSTSSEPLLSSALNTHELSSILPIKCPKDEDLLEQKPVTSAEQESEKNHLTTASNYNKSESQESLVTSPSKPKSPGVEKPIVKPTAGAGPQETNMKEPLATLVDQSPESLKRKSSLTQEEAPVSWEKRPRVTENRQHQQPFQVSPQPFLNRGDRIQVRKVPPLKIPVSRISPMPFHPSQVSPRARFPVSITSPRAAAAAAAAAAAAASVGGTIPGPGPGGGQGPGEGGEGQTARGGSPGSDRVSETGKGPTLELAGTGSRGGTRELLPCGPETQPQSETKTTPSQAQPHSVSGAQLQQTPPVPPTPAVSGACTSVPSPAHIEKLDNEKLNPTRATATVASVSHPQGPSSCRQEKAPSPTGPALISGASPVHCAADGTVELKAGPSKNIPNPSASSKTDASVPVAVTPSPLTSLLTTATLEKLPVPQVSATTAPAGSAPPSSTLPAASSLKTPGTSLNMNGPTLRPTSSIPANNPLVTQLLQGKDVPMEQILPKPLTKVEMKTVPLTAKEERGMGALIATNTTENSTREEVNERQSHPATQQQLGKTLQSKQLPQVPRPLQLFSAKELRDSSIDTHQYHEGLSKATQDQILQTLIQRVRRQNLLSVVPPSQFNFAHSGFQLEDISTSQRFMLGFAGRRTSKPAMAGHYLLNISTYGRGSESFRRTHSVNPEDRFCLSSPTEALKMGYTDCKNATGESSSSKEDDTDEESTGDEQESVTVKEEPQVSQSAGKGDTSSGPHSRETLSTSDCLASKNVKAEIPLNEQTTLSKENYLFTRGQTFDEKTLARDLIQAAQKQMAHAVRGKAIRSSPELFSSTVLPLPADSPTHQPLLLPPLQTPKLYGSPTQIGPSYRGMINVSTSSDMDHNSAVPGSQVSSNVGDVMSFSVTVTTIPASQAMNPSSHGQTIPVQAFSEENSIEGTPSKCYCRLKAMIMCKGCGAFCHDDCIGPSKLCVSCLVVR
modifications: left off: 3xFlag, end not stated, kept | 2xStrep, end not stated, kept
Turning to B1, the “association with PR-DUB complex” value in the data set with PR-DUB complex was “stably associates with the expected components of the PR-DUB complex”. For the same molecule, the “interaction with MLL3/4 complexes” value with MLL3/4 complexes is “abrogated the interaction between ASXL2 and MLL3/4 in vivo”. In addition, in the data set on H2AK119 (BAP1/ASXL2 complexes from co-transfected HEK293FT cells, purified native nucleosomes, room temperature, n=2), the “deubiquitinase activity toward H2AK119Ub in vitro” value is recorded as “does not affect”. In addition, the “de-ubiquitination of H2AK119” value in the data set on H2AK119 (purified complexes on human chromatin, 37 °C, 3 or 6 h, immunoblot) is “efficient and equivalent de-ubiquitination of H2AK119”. Further, the “mono-methylation of H3K4” value in data set [1] is given as “markedly decreased”. Besides, in the data set on GST-MLL4PHD2/3, the association in pull-down entry is on record as “essentially abolished”. Besides, in data set [2], the H2AK119ub level result was “not the ΔMBH ASXL2 mutant led to a decrease in H2AK119ub level” and the H3K4me1 level result is given as “not affected”. Besides, the association in pull-down entry in the data set with GST-MLL3PHD2/3 was “essentially abolished”.
